Data as given in the supplement of paper PMC6757056.
± gives the standard deviation of the averaged measurements.

B1: library; a variant is named by its letters at N, in order (parent)
chain: GCUGUCACCGAGAAACUGUGAAGUAUAUCUUAAACCUGGGCACUUAAAAGAUAUAUGGAGUUAGUAGUGCAACCUGCUCGGUCUGAUGAGUCCNNNNNNGGACGAAACAGC

Tests used:
cyclic di-GMP [1] = variants of: B1; assay: normalized RNA/DNA level without ligand (relative to sTRSVctl = 100) (log10 (% of sTRSVctl)); HEK293T; ligand: cyclic di-GMP (c-di-GMP-II aptamer); higher = less ribozyme self-cleavage, higher mRNA level; conditions: reporter: mCherry (pCS4076), ligand present: no
Method in brief: (§1)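 Library plasmids encoding reporter-linked ribozyme switches (mCherry, or eGFP for some folinic acid experiments) were transfected into HEK293T at 4 µg per 6-well well. Ligand, when used, was added 1 h before transfection. Total RNA was extracted with EDTA 72 h later, then reverse-transcribed, amplified, barcoded and sequenced. RNA level was RNA reads over DNA reads, divided by a spiked-in non-cleaving control (or the top 25 sequences), ×100, log10; only sequences with ≥100 DNA reads were kept.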

cyclic di-GMP [2] = variants of: B1; assay: normalized RNA/DNA level with ligand (relative to sTRSVctl = 100) (log10 (% of sTRSVctl)); HEK293T; ligand: cyclic di-GMP (c-di-GMP-II aptamer); ligand concentration (+) RNA-Seq: 1 mM; higher = less ribozyme self-cleavage, higher mRNA level; conditions: reporter: mCherry (pCS4076), ligand present: yes
Method in brief: as §1

UUAACG
normalized RNA/DNA level without ligand (log10) (cyclic di-GMP [1]): 1.81 ± 0.054
normalized RNA/DNA level with ligand (log10) (cyclic di-GMP [2]): 1.88 ± 0.11

CCCGAU
normalized RNA/DNA level without ligand (log10) (cyclic di-GMP [1]): 1.64 ± 0.027
normalized RNA/DNA level with ligand (log10) (cyclic di-GMP [2]): 1.83 ± 0.12

GGCCAU
normalized RNA/DNA level without ligand (log10) (cyclic di-GMP [1]): 1.73 ± 0.03
normalized RNA/DNA level with ligand (log10) (cyclic di-GMP [2]): 1.84 ± 0.1

CAAGAC
normalized RNA/DNA level without ligand (log10) (cyclic di-GMP [1]): 1.64 ± 0.06
normalized RNA/DNA level with ligand (log10) (cyclic di-GMP [2]): 1.8 ± 0.082

CUACGG
normalized RNA/DNA level without ligand (log10) (cyclic di-GMP [1]): 1.8 ± 0.061
normalized RNA/DNA level with ligand (log10) (cyclic di-GMP [2]): 1.89 ± 0.08

AGCAUA
normalized RNA/DNA level without ligand (log10) (cyclic di-GMP [1]): 1.52 ± 0.083
normalized RNA/DNA level with ligand (log10) (cyclic di-GMP [2]): 1.73 ± 0.074

AGCAUC
normalized RNA/DNA level without ligand (log10) (cyclic di-GMP [1]): 1.8 ± 0.021
normalized RNA/DNA level with ligand (log10) (cyclic di-GMP [2]): 1.88 ± 0.12

CAUGUG
normalized RNA/DNA level without ligand (log10) (cyclic di-GMP [1]): 1.71 ± 0.022
normalized RNA/DNA level with ligand (log10) (cyclic di-GMP [2]): 1.85 ± 0.092

GCUACC
normalized RNA/DNA level without ligand (log10) (cyclic di-GMP [1]): 1.67 ± 0.065
normalized RNA/DNA level with ligand (log10) (cyclic di-GMP [2]): 1.84 ± 0.098

UAUGCA
normalized RNA/DNA level without ligand (log10) (cyclic di-GMP [1]): 1.77 ± 0.061
normalized RNA/DNA level with ligand (log10) (cyclic di-GMP [2]): 1.87 ± 0.16

GGCCCC
normalized RNA/DNA level without ligand (log10) (cyclic di-GMP [1]): 1.92 ± 0.045
normalized RNA/DNA level with ligand (log10) (cyclic di-GMP [2]): 2 ± 0.13

ACUUCU
normalized RNA/DNA level without ligand (log10) (cyclic di-GMP [1]): 1.707 ± 0.0019
normalized RNA/DNA level with ligand (log10) (cyclic di-GMP [2]): 1.84 ± 0.057

CCAUUA
normalized RNA/DNA level without ligand (log10) (cyclic di-GMP [1]): 1.41 ± 0.066
normalized RNA/DNA level with ligand (log10) (cyclic di-GMP [2]): 1.6 ± 0.093

CGUUCG
normalized RNA/DNA level without ligand (log10) (cyclic di-GMP [1]): 1.81 ± 0.095
normalized RNA/DNA level with ligand (log10) (cyclic di-GMP [2]): 1.9 ± 0.16

GAGAUC
normalized RNA/DNA level without ligand (log10) (cyclic di-GMP [1]): 1.711 ± 0.0023
normalized RNA/DNA level with ligand (log10) (cyclic di-GMP [2]): 1.81 ± 0.11

GGUAGC
normalized RNA/DNA level without ligand (log10) (cyclic di-GMP [1]): 1.671 ± 0.014
normalized RNA/DNA level with ligand (log10) (cyclic di-GMP [2]): 1.8 ± 0.12

UUGGGG
normalized RNA/DNA level without ligand (log10) (cyclic di-GMP [1]): 1.61 ± 0.057
normalized RNA/DNA level with ligand (log10) (cyclic di-GMP [2]): 1.78 ± 0.094

GUGCGA
normalized RNA/DNA level without ligand (log10) (cyclic di-GMP [1]): 1.6 ± 0.071
normalized RNA/DNA level with ligand (log10) (cyclic di-GMP [2]): 1.73 ± 0.1

CUUUUU
normalized RNA/DNA level without ligand (log10) (cyclic di-GMP [1]): 1.611 ± 0.013
normalized RNA/DNA level with ligand (log10) (cyclic di-GMP [2]): 1.79 ± 0.11

GUAGGG
normalized RNA/DNA level without ligand (log10) (cyclic di-GMP [1]): 1.55 ± 0.11
normalized RNA/DNA level with ligand (log10) (cyclic di-GMP [2]): 1.71 ± 0.025

UCCCCU
normalized RNA/DNA level without ligand (log10) (cyclic di-GMP [1]): 1.78 ± 0.033
normalized RNA/DNA level with ligand (log10) (cyclic di-GMP [2]): 1.9 ± 0.13

UCCUAU
normalized RNA/DNA level without ligand (log10) (cyclic di-GMP [1]): 1.63 ± 0.085
normalized RNA/DNA level with ligand (log10) (cyclic di-GMP [2]): 1.8 ± 0.097

GUCUAG
normalized RNA/DNA level without ligand (log10) (cyclic di-GMP [1]): 1.62 ± 0.066
normalized RNA/DNA level with ligand (log10) (cyclic di-GMP [2]): 1.79 ± 0.072

ACCCAU
normalized RNA/DNA level without ligand (log10) (cyclic di-GMP [1]): 1.61 ± 0.018
normalized RNA/DNA level with ligand (log10) (cyclic di-GMP [2]): 1.79 ± 0.12

UCGAAU
normalized RNA/DNA level without ligand (log10) (cyclic di-GMP [1]): 1.45 ± 0.1
normalized RNA/DNA level with ligand (log10) (cyclic di-GMP [2]): 1.69 ± 0.059

UUAGAA
normalized RNA/DNA level without ligand (log10) (cyclic di-GMP [1]): 1.56 ± 0.043
normalized RNA/DNA level with ligand (log10) (cyclic di-GMP [2]): 1.73 ± 0.088

UUGCGA
normalized RNA/DNA level without ligand (log10) (cyclic di-GMP [1]): 1.778 ± 0.01
normalized RNA/DNA level with ligand (log10) (cyclic di-GMP [2]): 1.88 ± 0.076

GUAAUA
normalized RNA/DNA level without ligand (log10) (cyclic di-GMP [1]): 1.59 ± 0.044
normalized RNA/DNA level with ligand (log10) (cyclic di-GMP [2]): 1.73 ± 0.045

UUCAUU
normalized RNA/DNA level without ligand (log10) (cyclic di-GMP [1]): 1.77 ± 0.074
normalized RNA/DNA level with ligand (log10) (cyclic di-GMP [2]): 1.89 ± 0.094

UGGCAC
normalized RNA/DNA level without ligand (log10) (cyclic di-GMP [1]): 1.72 ± 0.043
normalized RNA/DNA level with ligand (log10) (cyclic di-GMP [2]): 1.86 ± 0.024

AAGUGC
normalized RNA/DNA level without ligand (log10) (cyclic di-GMP [1]): 1.666 ± 0.0039
normalized RNA/DNA level with ligand (log10) (cyclic di-GMP [2]): 1.82 ± 0.14

UACCGC
normalized RNA/DNA level without ligand (log10) (cyclic di-GMP [1]): 1.73 ± 0.031
normalized RNA/DNA level with ligand (log10) (cyclic di-GMP [2]): 1.86 ± 0.14

AAGAUG
normalized RNA/DNA level without ligand (log10) (cyclic di-GMP [1]): 1.49 ± 0.055
normalized RNA/DNA level with ligand (log10) (cyclic di-GMP [2]): 1.71 ± 0.075

UAAUUC
normalized RNA/DNA level without ligand (log10) (cyclic di-GMP [1]): 1.73 ± 0.021
normalized RNA/DNA level with ligand (log10) (cyclic di-GMP [2]): 1.84 ± 0.099

GCUCCC
normalized RNA/DNA level without ligand (log10) (cyclic di-GMP [1]): 1.71 ± 0.052
normalized RNA/DNA level with ligand (log10) (cyclic di-GMP [2]): 1.83 ± 0.17

GCUCCG
normalized RNA/DNA level without ligand (log10) (cyclic di-GMP [1]): 1.79 ± 0.028
normalized RNA/DNA level with ligand (log10) (cyclic di-GMP [2]): 1.92 ± 0.13

ACAUUU
normalized RNA/DNA level without ligand (log10) (cyclic di-GMP [1]): 1.42 ± 0.05
normalized RNA/DNA level with ligand (log10) (cyclic di-GMP [2]): 1.67 ± 0.11

GAAGAG
normalized RNA/DNA level without ligand (log10) (cyclic di-GMP [1]): 1.5 ± 0.14
normalized RNA/DNA level with ligand (log10) (cyclic di-GMP [2]): 1.71 ± 0.094

GUUGGA
normalized RNA/DNA level without ligand (log10) (cyclic di-GMP [1]): 1.56 ± 0.097
normalized RNA/DNA level with ligand (log10) (cyclic di-GMP [2]): 1.72 ± 0.077

GACGGC
normalized RNA/DNA level without ligand (log10) (cyclic di-GMP [1]): 1.627 ± 0.0064
normalized RNA/DNA level with ligand (log10) (cyclic di-GMP [2]): 1.72 ± 0.088

GACGGU
normalized RNA/DNA level without ligand (log10) (cyclic di-GMP [1]): 1.633 ± 0.0071
normalized RNA/DNA level with ligand (log10) (cyclic di-GMP [2]): 1.8 ± 0.11

UUUCCG
normalized RNA/DNA level without ligand (log10) (cyclic di-GMP [1]): 1.8104 ± 0.0015
normalized RNA/DNA level with ligand (log10) (cyclic di-GMP [2]): 1.92 ± 0.056

ACGUCU
normalized RNA/DNA level without ligand (log10) (cyclic di-GMP [1]): 1.55 ± 0.087
normalized RNA/DNA level with ligand (log10) (cyclic di-GMP [2]): 1.74 ± 0.085

UCAAGA
normalized RNA/DNA level without ligand (log10) (cyclic di-GMP [1]): 1.52 ± 0.0098
normalized RNA/DNA level with ligand (log10) (cyclic di-GMP [2]): 1.74 ± 0.098

ACGAGC
normalized RNA/DNA level without ligand (log10) (cyclic di-GMP [1]): 1.62 ± 0.049
normalized RNA/DNA level with ligand (log10) (cyclic di-GMP [2]): 1.76 ± 0.084

GUUCCU
normalized RNA/DNA level without ligand (log10) (cyclic di-GMP [1]): 1.76 ± 0.079
normalized RNA/DNA level with ligand (log10) (cyclic di-GMP [2]): 1.89 ± 0.13

AAAAAG
normalized RNA/DNA level without ligand (log10) (cyclic di-GMP [1]): 1.45 ± 0.09
normalized RNA/DNA level with ligand (log10) (cyclic di-GMP [2]): 1.66 ± 0.082

ACGCGU
normalized RNA/DNA level without ligand (log10) (cyclic di-GMP [1]): 1.504 ± 0.0098
normalized RNA/DNA level with ligand (log10) (cyclic di-GMP [2]): 1.71 ± 0.14

CUACUU
normalized RNA/DNA level without ligand (log10) (cyclic di-GMP [1]): 1.56 ± 0.067
normalized RNA/DNA level with ligand (log10) (cyclic di-GMP [2]): 1.73 ± 0.059

ACAGUG
normalized RNA/DNA level without ligand (log10) (cyclic di-GMP [1]): 1.51 ± 0.11
normalized RNA/DNA level with ligand (log10) (cyclic di-GMP [2]): 1.68 ± 0.067

GCGUAA
normalized RNA/DNA level without ligand (log10) (cyclic di-GMP [1]): 1.44 ± 0.091
normalized RNA/DNA level with ligand (log10) (cyclic di-GMP [2]): 1.61 ± 0.096

ACUACU
normalized RNA/DNA level without ligand (log10) (cyclic di-GMP [1]): 1.68 ± 0.041
normalized RNA/DNA level with ligand (log10) (cyclic di-GMP [2]): 1.82 ± 0.14

CCACCC
normalized RNA/DNA level without ligand (log10) (cyclic di-GMP [1]): 1.798 ± 0.016
normalized RNA/DNA level with ligand (log10) (cyclic di-GMP [2]): 1.87 ± 0.097

CUUAUU
normalized RNA/DNA level without ligand (log10) (cyclic di-GMP [1]): 1.54 ± 0.023
normalized RNA/DNA level with ligand (log10) (cyclic di-GMP [2]): 1.71 ± 0.065

GCCGUC
normalized RNA/DNA level without ligand (log10) (cyclic di-GMP [1]): 1.54 ± 0.05
normalized RNA/DNA level with ligand (log10) (cyclic di-GMP [2]): 1.72 ± 0.12

UCGUAA
normalized RNA/DNA level without ligand (log10) (cyclic di-GMP [1]): 1.44 ± 0.1
normalized RNA/DNA level with ligand (log10) (cyclic di-GMP [2]): 1.64 ± 0.15

AGAGUC
normalized RNA/DNA level without ligand (log10) (cyclic di-GMP [1]): 1.6 ± 0.02
normalized RNA/DNA level with ligand (log10) (cyclic di-GMP [2]): 1.76 ± 0.097

CUCUCC
normalized RNA/DNA level without ligand (log10) (cyclic di-GMP [1]): 1.81 ± 0.029
normalized RNA/DNA level with ligand (log10) (cyclic di-GMP [2]): 1.91 ± 0.11
